# PMC4865801
binder,measurement,setting,value
KKLITFILKKTREK [β4-peptide],"cells with resurgent currents (whole-cell patch clamp, 100 µM β4-peptide in the pipette, 50 nM ATX-II in the bath) (out of 15 cells)",hNav1.7/ΔL955 (human),1
same,"share of cells with resurgent currents (whole-cell patch clamp, 100 µM β4-peptide in the pipette, 50 nM ATX-II in the bath)",hNav1.7 WT (human),42%
same,"share of cells with resurgent currents (whole-cell patch clamp, 100 µM β4-peptide in the pipette, 50 nM ATX-II in the bath)",hNav1.7/V948C (human),55%
